This note sets out measurements from US20190309092A1.

The target of this assay is TNFα (UniProt P01375). Briefly: SPR, Biacore T100, single-cycle kinetics, 1:1 Langmuir fit; Target 1 column. Background: In SPR one partner is held on a chip, and binding of the other changes the refractive index at the surface.
Chain of UniProt P01375 (P01375 77-233 limits assumed): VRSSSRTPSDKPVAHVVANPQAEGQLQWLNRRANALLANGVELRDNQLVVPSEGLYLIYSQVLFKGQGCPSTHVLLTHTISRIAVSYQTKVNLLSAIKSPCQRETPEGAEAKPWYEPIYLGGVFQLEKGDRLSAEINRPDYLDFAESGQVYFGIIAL

As to Humira IgG(Full) (antibody), the Kd worked out at 0.0643 nM.

One may read the Kd as a measure of binding affinity in units of concentration. High values mean lower affinity, low ones higher affinity.
